According to publication PMC2597217:

Assays:
FoxO1 DBD S249E = FoxO1 DBD S249E (human, UniProt Q12778 151-266, S249E); test: EMSA
FoxO1 DBD S184C = FoxO1 DBD S184C (human, UniProt Q12778 151-266, S184C); test: crystal structure
FoxO1 DBD A207C = FoxO1 DBD A207C (human, UniProt Q12778 151-266, A207C); test: crystal structure
Chain of FoxO1 DBD A207C (Q12778 151-266 A207C): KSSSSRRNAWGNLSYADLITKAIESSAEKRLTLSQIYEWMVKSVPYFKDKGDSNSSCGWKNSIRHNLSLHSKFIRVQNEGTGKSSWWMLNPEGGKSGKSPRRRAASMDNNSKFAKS

Chain of FoxO1 DBD S249E (Q12778 151-266 S249E): as the sequence (Q12778 151-266 A207C) above, with C57A, S99E counted along it
Chain of FoxO1 DBD S184C (Q12778 151-266 S184C): as the sequence (Q12778 151-266 A207C) above, with S34C, C57A counted along it

Binder | binding result (FoxO1 DBD S249E) | binding result (FoxO1 DBD S184C) | binding result (FoxO1 DBD A207C)
DBE2 (dsDNA) DNA 1: TCTTGTTTACATTTTG DNA 2: CAAAATGTAAACAAGA | binds |  | 
IRE (dsDNA) DNA 1: TGGTTTGTTTTGCTTG DNA 2: CAAGCAAAACAAACCA | binds | binds | binds
